Biological target: the molecule itself
Assay: electron microscopy

B1: Taz1pΔC (C-terminally truncated version of the Taz1 protein) (domain or fragment, S. pombe, UniProt P79005 1-556, looked up)
chain: MISVQSTETIQKVLENEGDQQFDKEVVQNSDSNIETGQISDSLTKAVEERAETESSSNLSNFTTSESESSKPAYCFNSHSQNMAEGSISIPVISHSMNVENEVSTAEGQDSRTGESENDQNAMIVRSIWDIEKASLLVNDCQNIANMAEQKVMMVSAIFSESSKDIVNPESFSERLGKETVKDLYEFNEQLTTKYGLEFRTIFFSYIRKYDAYWCLFEDLEKPLKSIQFFTGLIDLLDNTNKHLTLRSIVLDALLSADEEDSFYGDALVLFEELVIRYFGTDSNPSIDASEFILSCLPYTSLDALNVVCGQVWKSQKICDFLKSTIGNTSNSPLQLRASFPAFVNAVIHFLLEFKNVRRLERKDLSVKGMLYDSDSQQILNRLRERVSGSTAQSADEASGHESDASEDTFSERTLGLNSIDNTEISEVVSLGLVSSALDKITGLLSADNLSETVSQARDFSHTLSKSLKSRAKSLSQKEAANRSKLIAKRGDNLRREASLSSEQDDLSEDFPPVRESDEQESRSGGRSSAMRVSIERSAARSGTRRSQGNPYEGYR
B1: binds.
